The data set in a line: yeast display, Sf9 membrane polyspecificity reagent, FACS + sequencing; frameworks hold sequencing errors. The method in brief:
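Galactose-induced (36–48 hours) yeast carrying a synthetic nanobody display library were exposed to 10% biotinylated, detergent-solubilized Sf9 membrane reagent at 4 °C for 1 hour. FACS followed streptavidin microbead enrichment, using low and high (top ~1%) gates for expression (anti-HA) and reagent binding (streptavidin). Colony PCR, MiSeq 2 × 250 sequencing and CDR-length filtering followed. Labels for polyreactivity reflect the gate of origin.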
On to “QVQLVESGGGLVQAGGSLRLSCAASGRTFGYNVMGWYRQAPGKERELVADITSTSSTSYADSVKGRFTISRDNAKNTVYLQMNSLKPEDTAVYYCAAYYYFFRRYSWRLSGDYWGQGTQVTVSS”, for which the “polyreactivity (PSR sort gate)” value is given as “low polyreactivity”. With “QVQLVESGGGLVQAGGSLRLSCAASGRIFLTYAMGWYRPAPGKERELVAAIRSRSGTTYYADSVKGRFTISRDNAKNTVYLQMNRLKPEDTAVFYCAAGGKSRSYYWGQGTQVTVSS”, the “polyreactivity (PSR sort gate)” value was “high polyreactivity”.

On to “QVQLVESGGGLVQAGGSLRLSCAASGRIFAIYAAIGWYRQAPGKERELVAAISSGDNTNYADSEKGRFTISRDNAKNTVYLQMNSLIPEDTAVYYCATDLVYYAAVTKFAEYDYWGQGTQVTVSS”, for which the “polyreactivity (PSR sort gate)” value is “low polyreactivity”. Turning to “QVQLVESGGGLVQAGGSLRLSCAASGSILTVYSMGWYRQAPGKERELVARIRSGDRTYYADSVKGRFTISRDNAKNTVYLQMNSLKPEDTAVYYCAAGSQRRYYHTNWDSFNYWGQGTQVTVSS”, the “polyreactivity (PSR sort gate)” value is on record as “low polyreactivity”.

For “QVQLVESGGGLVQAGGSLRLSCAASGFTFGHYARGWSRQAPGKERELVAAISRSGGTTSYADSVKGRFTISRDNAKNTVYLQMNSLKTEDTAVYYCNKDYIWARYGGGRDYWGQGTQVTVSS”, the “polyreactivity (PSR sort gate)” value was “low polyreactivity”. For the sequence “QVQLVESGGGLVQAGGSLRLSCAASGRIFTYYAMGWYRQAPGKERELVAAITSRGGRTYYADSVKGRFTISRDNAKNTVYLQMNSLKPEDTAVYYCNVDRWRRTISHDIYGYWGQGTQVTVSS”, the “polyreactivity (PSR sort gate)” value is reported as “high polyreactivity”. Turning to “QVQLVESGGGLVQAGGSFRLSCAASGGTFDTYVMGWYRQAPGKERELVAVITRGASTYYADSVKGRFTISRDNAKNTVYLQMNSLKPEDTAVYYCAAAVYSPDYYRFWYSFDYWGQGTQVTVTS”, the “polyreactivity (PSR sort gate)” value was “low polyreactivity”.

As to “QVQLVESGGGLVQAGGSLRLSCAATGSIFEGYAMGWYRQAPGKERELVARITSDDDSTYYADSVKGRFTISRDNAKNSVYLQMNSLKPEDTAVYYCNADYYWTSLAMDSWGQGTQVTVSS”, the “polyreactivity (PSR sort gate)” value was “low polyreactivity”. The result for “QVQLVESGGGLVQAGGSLRLSCAASGSTFYRYAMGWYRQAPGKERELVAAISSSGGSTYYADSVKGRFTISRDNAKNTVYLQMNSLKPEDTAVYYCNAALTPYDYDYWGQGTQVTVSS” reads “low polyreactivity”; that for “QDQLVDSGGGLVQAGGSLRLSCAASGRIFSGNGMGWYSPAPGKERELVASISSGGRTYYADSVKGRFTISRDNAKITVYLQMNSLKPEDTAVYYCNRVASVRARDYDYWGQGTQVTVSS”, “high polyreactivity”; that for “QVQLVESGGGLVQAGGSLRLSCAASGLIIPRYAMGWYRQAPGKERELVAAITYTGGSTYYADSVKGRFTISRDNAKNTVYLQMNSLKPEDTSVYYCAVVVGYTDSPYSYDYWGQGTQVTVSS”, “low polyreactivity”. The result for “QVQLVESGGGLVQAGGSLRLSCAASGSILGYYAMGWYRPAPGKERELVAAISGRGGSTYYADSVKGRFTISRDNAKNTVYLQMNSLKPEDTAVYYCAVVWGSYYWGQGGGDYWGQGTQVTVSS” reads “high polyreactivity”.

“QVQLVESGGGLVQAGGSLRLSCAASGRIFVINAMGWYRQAPGKERELVAAISRRGANTYYADSVKGRFTISRDNAKNTVYLQMNSLKPEDTAVYYCNKVTVYRFRGDSWGQGTQVTVSS”: the “polyreactivity (PSR sort gate)” value is given as “high polyreactivity”. The result for “QVQLVESGGGLVQAGGRLRLSCAASGSTLIRNVMGWYRQAPGKERELVAAINTRGTTTYYADSVKGRFTISRDKAKNTVYLQMNSLKPEDTAVSYCAARTPHYSYGYWGQGTHVTVSS” reads “high polyreactivity”; that for “QVQLVESGGGLVQAGGSLRLSCAASGSTFIVNAMGWYRQAPGKERELVAAIRRGTRTNYADSVKGRFTISRDNAKNTVYLQMNSLKPEDTAVYYCAVRGSYRGWYDYWGQGTQVTVSS”, “high polyreactivity”; that for “QVQLVESGGGLVQAGGSLRLSCAASGFIFSYNAMRWYRQAPGKERELTYADSVKGRFTISRDNAKNTVYLQMNSLKPEDTAVYFCAAGEYGRQYDGDYWGQATQVTVSS”, “low polyreactivity”.

As for “QVQLVESGGGLVQAGGSLRLSCAASGSTFQSYAMGRYRQAPGKERELVAAISFSGGSTYYADSVKGRFTISRDNAKNTVYLQMNSLKPEDTAVYYCAKRGWVYFHGYDYWGQGTQVTVSS”, the “polyreactivity (PSR sort gate)” value is “low polyreactivity”. Under “QVQLVESGGGLVQAGGSLRLSCAAYAMGWYRQAPGKERELVAAISSSGGSTYYADSVKGRFTISRDNAKNTVYLQMNSLKPEDTAVYYCARDPDTYFFPPTGYYTSGFDSWGQGTQVTVSS” stands “low polyreactivity”; under “QVQLVESGGGLVQAGGSLRLSCAASGSIFGTNAMGWYRQAPGKERELVAAIDGGSTTYYADSVKGRFTISRDNAKNTVYLQMNSLKPEDTAVYYCAADGTRYLNDEGYAGYEYWGQGTQVTVSS”, “low polyreactivity”. Under “QVQLVESGVGLVQAGGSLRLSCAASGRIFRPYAMGWYRQAPGKERELVAAITQSGGITSYADSVKGRFTISRDNAKNTVYLQMNSLKPEDTAVYYCATTSRYTRSHYDWYDYWGQGTQVTVSS” stands “low polyreactivity”; under “QVQLVESGGGLVQAGGSLRLSCAASGSTFRPYAMGWYRQAPGKEMELVARMTGSGDSTYYADSVKGRFTISRDNAKNTVYLQMNSLKPEDTAVYYCNALYTSLRKYNYWGQGTQVTVSS”, “low polyreactivity”. Under “QVQLVESGGGLVQAGGSLRLICAASGYTFPYNVMGWYRQAQGKERELVAAITSSGGSTYYADSVKGRFTISRDNAKTTVYLQMNSLKPEDTAVYYCNASPSSSLFDYLGQGTQVTVSS” stands “low polyreactivity”. “QVQLVESGGGLVQAGGSLRLSCAASGRIVNRYAMGWDRQAPVKERELVAAITYNGGSTYYADSVKGRFTISRDNAKNTVYLQMNSLKPVDTAVYYCNAVEVLDEGWGFWYYYWGQGTQVTVSS”: the “polyreactivity (PSR sort gate)” value is “high polyreactivity”. Under “QVQHVESGGGLVQAGGSLRLSCAASGRIFQRNTMGWYRQAPGKERELVARINYSGGSTYYADSVKGRFTISRDNAKTTVYLQLNSLKPEDTAVYYCAARVWTWSIYYPAGLSSYDYWGQGTQVTVSS” stands “low polyreactivity”; under “QVQHVESGGGLVQAGGSLRLSCAASVLIFYIYAMGWYRQAPGKERELVAAITTGGRTNYADSVKGRFTISRDNAKNTVYLQMKSLKPEDTEVYYCAKDFPIWISHGPDTDNDYGGQGTQVTVSS”, “low polyreactivity”; under “QVQLVESGGCLVQAGGSLRLSCASSGSTFTHYAMGWYIQSPGKERELVAAISSGGSTYYADSVKGRFTISRDNAKNTVYLQMNSLKPEDTAVYYCAADYYLHDWWYPHDYWGQGTQVTVSS”, “low polyreactivity”. The result for “QVQLVESGGGLVQAGGSLRLSCAASGLIFWLNAMGWYRQAPGKERELVAAISWTDGTTYYADSVKGRFTISRDNAKNTVYLQMNSLIPEDTAVYYCAAEQVTIEDGVYFDFNSWGQGTQVTVSS” reads “low polyreactivity”. Under “QVQLVESGGGLVQAGGSLRLSCAASGYIFDLNPMGRYRQAPGKERELVAAISTGGGTYYADSVKGRFTISRDNAKNTVYLQMNSLKPEDTAVYYCAADWGYWYAEYDYWGQGTLVTVSS” stands “low polyreactivity”; under “QVQLEESVGGLVQAGVSLRLSCAASGRFFYFYAMGWYRQAPAKERELVASISSGGITIYADSVKGRFTISRDNSKYTVYLQMYSLKREDTAVYYCNAGYASGKYSGVYLYGYLGQGTQVTVSS”, “low polyreactivity”; under “QVQLVESGGGLVQAGGSLRLTCAASGRIFYHYAMGWYRQATGKERELVATISGAGSTHYADSVKGRFTISRDNAKNTVYLQMNSLKAEDTAVYYCNADTYLIRYWSMLEYWGQGTQVTVSS”, “low polyreactivity”.
